Measured values reported in patent publication US20250186541A1, “DLL3 TARGETING PEPTIDES AND CONSTRUCTS THEREOF” (MARIANA ONCOLOGY INC., priority 2023, published 2025).
Numbered stars: 1 amine (or outer) side, 2 acyl side, 3 side chain; on linkers, the order of the positions; unused ones are H or OH. Bridge positions count the residues as written; N and C are the ends. Square brackets hold non-standard residues; d marks the D form. * marks the point of attachment. Ala(piperidin-4-yl) = O=C([C@H](CC1CCN([*:3])CC1)N[*:1])[*:2]; DOTA = O=C(O)CN1CCN(CC(=O)O)CCN(CC(=O)*)CCN(CC(=O)O)CC1; Phe(4-CF3) = N[C@@H](Cc1ccc(C(F)(F)F)cc1)C(=O)O; Trp(5-F) = N[C@@H](Cc1c[nH]c2ccc(F)cc12)C(=O)O; Trp(7-Me) = Cc1cccc2c(C[C@H](N)C(=O)O)c[nH]c12; 1Nal = N[C@@H](Cc1cccc2ccccc12)C(=O)O; NMeChg = CN[C@H](C(=O)O)C1CCCCC1; αMeP = C[C@@]1(C(=O)O)CCCN1; PAF = not defined here

Experiments:
[1] = target: T1, Biotinylated human DLL3 (human, UniProt Q9NYJ7 27-492, biotinylated (site not stated)); experiment: SPR, biotin-hDLL3 on SA chip; Cpd 56, a separate compound
T1 construct: also called Delta-like ligand 3; Delta Like Canonical Notch Ligand 3
T1 sequence (looked up): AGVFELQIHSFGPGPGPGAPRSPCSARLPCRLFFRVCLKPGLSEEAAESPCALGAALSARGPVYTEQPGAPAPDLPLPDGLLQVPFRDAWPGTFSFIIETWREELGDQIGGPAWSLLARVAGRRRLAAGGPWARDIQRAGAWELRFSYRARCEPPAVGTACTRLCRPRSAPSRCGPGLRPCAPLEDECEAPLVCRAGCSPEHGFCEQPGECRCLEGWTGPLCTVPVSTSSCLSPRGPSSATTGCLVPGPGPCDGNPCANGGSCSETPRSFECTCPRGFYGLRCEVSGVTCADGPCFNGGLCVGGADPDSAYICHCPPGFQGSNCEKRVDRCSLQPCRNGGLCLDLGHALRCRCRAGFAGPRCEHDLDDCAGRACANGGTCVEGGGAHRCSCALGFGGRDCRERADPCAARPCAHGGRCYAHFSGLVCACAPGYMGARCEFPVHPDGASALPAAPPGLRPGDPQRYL

[2] = target: Biotinylated human DLL3 (human) (UniProt Q9NYJ7); experiment: SPR, biotin-hDLL3 on SA chip
[3] = target: T1, Biotinylated human DLL3; experiment: SPR, biotin-hDLL3 on SA chip; Cpd 59, a separate compound
[4] = target: T1, Biotinylated human DLL3; experiment: SPR, biotin-hDLL3 on SA chip; Cpd 58, a separate compound

B1: Cpd #56 (peptide)
peptide: Ac-MSDC[1Nal]LQWNCPFD[dK](DOTA)-NH2
modifications: disulfide 4-10
SMILES: CSCC[C@H](NC(C)=O)C(=O)N[C@@H](CO)C(=O)N[C@@H](CC(=O)O)C(=O)N[C@H]1CSSC[C@@H](C(=O)N2CCC[C@H]2C(=O)N[C@@H](Cc2ccccc2)C(=O)N[C@@H](CC(=O)O)C(=O)N[C@H](CCCCNC(=O)CN2CCN(CC(=O)O)CCN(CC(=O)O)CCN(CC(=O)O)CC2)C(N)=O)NC(=O)[C@H](CC(N)=O)NC(=O)[C@H](Cc2c[nH]c3ccccc23)NC(=O)[C@H](CCC(N)=O)NC(=O)[C@H](CC(C)C)NC(=O)[C@H](Cc2cccc3ccccc23)NC1=O
B1 was tested, and the Kd [1] was 1.13 nM.

B2: Cpd #188 (peptide)
peptide: Ac-[Ala(piperidin-4-yl)]SDC[1Nal][NMeChg][PAF](DOTA)[Trp(7-Me)]NC[αMeP]FD-NH2
modifications: disulfide 4-10; reading uncertain; also: printed as Ac-[3-(4-piperidinyl)-Ala]-S-D-C(3)-(1Nal)-(NMe-Chg)-[PAF(DOTA)]-(7Me-W)-N-C(3)-(aMe-P)-F-D-CONH2; (3)=disulfide
Work on B2 yielded a Kd [2] of over 30 nM.

B3: Cpd #59 (peptide)
peptide: Ac-MSDC[Phe(4-CF3)]LQWNCPFD[dK](DOTA)-NH2
modifications: disulfide 4-10
SMILES: CSCC[C@H](NC(C)=O)C(=O)N[C@@H](CO)C(=O)N[C@@H](CC(=O)O)C(=O)N[C@H]1CSSC[C@@H](C(=O)N2CCC[C@H]2C(=O)N[C@@H](Cc2ccccc2)C(=O)N[C@@H](CC(=O)O)C(=O)N[C@H](CCCCNC(=O)CN2CCN(CC(=O)O)CCN(CC(=O)O)CCN(CC(=O)O)CC2)C(N)=O)NC(=O)[C@H](CC(N)=O)NC(=O)[C@H](Cc2c[nH]c3ccccc23)NC(=O)[C@H](CCC(N)=O)NC(=O)[C@H](CC(C)C)NC(=O)[C@H](Cc2ccc(C(F)(F)F)cc2)NC1=O
With B3 the Kd [3] was 149 nM.

B4: Cpd #58 (peptide)
peptide: Ac-MSDC[Trp(5-F)]LQWNCPFD[dK](DOTA)-NH2
modifications: disulfide 4-10
With B4 the Kd [4] was 42 nM.
